System: TO-N3 (biotin conjugate)
Assay: pull-down binding Z-score (relative to library population); higher = stronger binding
Settings: RNA library: Library-2
Summary of the method: (§1)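 To score binding, a beads-only signal was subtracted, barcoded replicate probes were averaged with the highest and lowest dropped, and the value was converted to a Z-score using the library mean and standard deviation. The input was 1 μg of Cy5- or Cy3-end-labelled RNA library, heat-folded in phosphate/NaCl/KCl buffer and mixed for 60 min at 25 °C with streptavidin beads carrying 100 pmol of biotin-conjugated small molecule. Bound RNA was eluted in hot SDS and hybridised to a DNA barcode microarray at 55.5 °C for 20 h.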

Row | Sequence | pull-down binding Z-score
1 | AUUCAGACUCAGGU [hsa-mir-921] | -0.204
2 | AUUCUGAUGAUCACCUAGCCAGAAU [hsa-mir-5583-2] | 1.45
3 | AUUCUGGACACCAG [hsa-mir-147b] | 0.311
4 | AUUCUGGAGUCCAUCUAGAG [hsa-mir-1182] | -0.598
5 | AUUCUGGCUAGGUGAUCAUCAGAAU [hsa-mir-5583-1] | -1.07
6 | AUUGAGAGUUCCUUCUCCUGCUCCUGAU [hsa-mir-6766] | -0.462
7 | AUUGAGUUACCUUUCUGACUUUCCCACU [hsa-mir-28] | -0.0391
8 | AUUGCACGUGUGUGAGGCGGGUGCAGU [hsa-mir-33b] | 0.7
9 | AUUGCAUGUUCUGGUGGUACCCAUGCAAU [hsa-mir-33a] | 0.127
10 | AUUGCUGGACGCUGCCCUGGGCAU [hsa-mir-25] | 1.12
11 | AUUGGAUGGAGUCAGGUCUCUAAU [hsa-mir-200b] | 0.26
12 | AUUGGCUUGGAUUCUGCAAAGCCU [hsa-mir-7151] | 0.194
13 | AUUGUACUGUGGUGGUUACAAU [hsa-mir-34b] | -0.984
14 | AUUGUUGCCUCUGCAUGUUACAAU [hsa-mir-8066] | -0.485
15 | AUUGUUGUGGGGUAGGGAUAUUAGGCCCCAAUUAGAAGAUAACUAU [hsa-mir-98] | 1.07
16 | AUUUAUGUGAACUAAAAUAUAAAU [hsa-mir-513b] | 1.03
17 | AUUUCCCAAAGUUGGGAAAA [hsa-mir-320b-2] | -0.432
18 | AUUUCUGUAGCUCUGAGACUAGACCU [hsa-mir-544b] | -0.0563
19 | AUUUCUGUGUUCGUUAGGCAACAG [hsa-mir-221] | 1.07

System: TO-N3-2 (biotin conjugate)
Assay: as above
Settings: RNA library: Library-2
Summary of the method: as §1

Row | Sequence | pull-down binding Z-score
20 | AUAUGAGCUUCAUUUAUACAUUUCAUAU [hsa-mir-556] | -1.01
21 | AUAUGUGUGUAUAUAUGUACACAUAC [hsa-mir-466] | -1.14
22 | AUAUUGACACUAUAACAAUAAUGUCAAUAU [hsa-mir-4795] | -1.79
23 | AUCAAAGUGGGGACUCAUGGGGAGAG [hsa-mir-4284] | 1.07
24 | AUCAAGAAAAGAUUUGGUGUUCUUGAU [hsa-mir-4782] | -0.784
25 | AUCACUGAAAUAUGUCUGAGCUUCUGUU [hsa-mir-4501] | -0.302
26 | AUCAGCAGAGACAUGAGGUGAUCAAAAACCUUUUUUCAAAGCAGUGGG [hsa-mir-4300] | 0.438
27 | AUCAGGCAGUUUCCUG [hsa-mir-4289] | 0.0394
28 | AUCAGUUCUCAUUUUACACACUGGC [hsa-mir-24-1] | -0.282
29 | AUCAUAAUAAAGGUGUCAUGAU [hsa-mir-3682] | -0.694
30 | AUCAUCUCUCCCUUGGAU [hsa-mir-3683] | -0.446
31 | AUCAUGUAUAAUUAAAAAUGAU [hsa-mir-509-2_509-3_509-1] | -1
32 | AUCCAGUCCACUUAAUUCUGAGAAAGUCCACAGACUGGAUCGGGUCUUGGAUUUUAGCUGGAUUCAU [hsa-mir-6082] | 0.4
33 | AUCCCUUAGAUGCUAAGAUGGGGAU [hsa-mir-145] | -0.75
34 | AUCGGUCGAGAGCGUCCUGGCUGAU [hsa-mir-3178] | 1
35 | AUCUAUUCCAGAAGAU [hsa-mir-4696] | -1.35
36 | AUCUCCUUUAGGAAAACCUUCUGUGGGGAGU [hsa-mir-1296] | -0.641
37 | AUCUGAAUGAUCUCAGC [hsa-mir-626] | 0.364
38 | AUCUGAGGUGACUGGCACAGAAGACUCAGG [hsa-mir-6735] | 0.797
39 | AUCUGAUGUUGAAUACUCUUUAAGU [hsa-mir-1245a] | -0.685
40 | AUCUGCAGGGCAUUGUGCUAACAGGU [hsa-mir-4681] | 0.0756
41 | AUCUUCCUGACCUGGUAAUAAUUAGGUGAGAAGGAU [hsa-mir-8069-2_8069-1] | -1.12
42 | AUGAGAAAUUGGUUUCAA [hsa-mir-8063] | -0.557
43 | AUGAGCUAAAAAUCCCCAAGCUCU [hsa-mir-4769] | -0.0561
44 | AUGAUAUAUUGUGAGAGCCAUGUCAU [hsa-mir-6718] | -0.393

Row | Sequence | pull-down binding Z-score
45 | AUGAUUUUUGGGGUCA [hsa-mir-4678] | -0.328
46 | AUGCACCCAUAUUUUAAUAUCAAACUAUGACAAAUU [hsa-mir-3974] | -0.358
47 | AUGCAUGGCUGGUGGCGGCGUGCAG [hsa-mir-6722] | 2.13
48 | AUGCCCCAGGUGACGUGCUGGGCU [hsa-mir-4526] | 0.888
49 | AUGCCUGAGAAUAUAUGAAGGAGGCU [hsa-mir-204] | 0.965
50 | AUGCUAAGUCCAUGGGCAAACAU [hsa-mir-5704] | 0.235
51 | AUGGAGAACGCCCCCACCAGUUCCCAC [hsa-mir-6767] | 0.67
52 | AUGGAGGCUGCUUCUCCUCAGCAGCUGCCAUA [hsa-mir-3651] | 0.366
53 | AUGGAUAUGGGAACUGUGAUGUCCA [hsa-mir-4768] | 0.232
54 | AUGGCAUUUAAGGAUUGCUAU [hsa-mir-4477a] | -0.675
55 | AUGGGAGCCCAGAGACGUCCUAU [hsa-mir-8074] | 0.669
56 | AUGGGGCAGCUGGGAUGGUCCAAAAGGGUGGCCUCA [hsa-mir-1226] | 1.17
57 | AUGGUCUCUAUAUUUAUGAUGAUUAA [hsa-mir-889] | 0.0111
58 | AUGGUGUUUGUGAGUUGAUUGACAUCGU [hsa-mir-6506] | 0.0463
59 | AUGGUUAAUGUUCCACAGCCA [hsa-mir-5190] | 0.372
60 | AUGGUUCCUAUUCUGAUCAAUAAACAUGGUUUGAGCCUAGUUACAAUGAUCUAAAAUUCACGGUCCAA [hsa-mir-548o] | -0.0344
61 | AUGGUUUAGAGUUACACCCUGGGAGUUAACUGU [hsa-let-7c] | 0.0342
62 | AUGUCCCUUUAGUUCAAAGU [hsa-mir-2052] | -0.324
63 | AUGUCUCAGGUCCCCAGCUGAGUCAA [hsa-mir-6513] | 0.47
64 | AUGUCUGCUGGGGAACCGGGGCU [hsa-mir-4518] | 1.39
65 | AUGUGAUGUCACUGAGGAAAUCACAC [hsa-mir-216b] | -0.00778
66 | AUGUGAUGUGAGCAGAUGGUUCUCACU [hsa-mir-6758] | 0.176
67 | AUGUGAUUGCUGUCCCAAACUCAUGU [hsa-mir-135b] | -0.0979
68 | AUGUGUUGUGAUGGCACAGCGU [hsa-mir-592] | 0.256
69 | AUGUUCACUUGAUUAAUGGCGAAUAU [hsa-mir-1185-2_1185-1] | -0.673

Row | Sequence | pull-down binding Z-score
70 | AUGUUCGCUUCAUUCAUCAUGAAUAA [hsa-mir-655] | -0.299
71 | AUGUUUAUUGUAAAGAUACUUU [hsa-mir-1305] | -0.121
72 | AUUACUUGUGUUCUAUAUAAAGUAUU [hsa-mir-92a-2] | -0.831
73 | AUUAGACAGAAAAAAGUUAGACACAAAAAAUUGUGUCUAAU [hsa-mir-4759] | -0.525
74 | AUUAUGUUUUGGACAUAGAAACAUAAC [hsa-mir-5688] | -0.665
75 | AUUCAGACUCAGGU [hsa-mir-921] | -0.0427
76 | AUUCUGAUGAUCACCUAGCCAGAAU [hsa-mir-5583-2] | 0.317
77 | AUUCUGGACACCAG [hsa-mir-147b] | 0.326
78 | AUUCUGGAGUCCAUCUAGAG [hsa-mir-1182] | -0.297
79 | AUUCUGGCUAGGUGAUCAUCAGAAU [hsa-mir-5583-1] | -0.726
80 | AUUGAGAGUUCCUUCUCCUGCUCCUGAU [hsa-mir-6766] | -0.0576
81 | AUUGAGUUACCUUUCUGACUUUCCCACU [hsa-mir-28] | -0.279
82 | AUUGCACGUGUGUGAGGCGGGUGCAGU [hsa-mir-33b] | 0.592
83 | AUUGCAUGUUCUGGUGGUACCCAUGCAAU [hsa-mir-33a] | 0.382
84 | AUUGCUGGACGCUGCCCUGGGCAU [hsa-mir-25] | 1.4
85 | AUUGGAUGGAGUCAGGUCUCUAAU [hsa-mir-200b] | 0.568
86 | AUUGGCUUGGAUUCUGCAAAGCCU [hsa-mir-7151] | 1.03
87 | AUUGUACUGUGGUGGUUACAAU [hsa-mir-34b] | -1.19
88 | AUUGUUGCCUCUGCAUGUUACAAU [hsa-mir-8066] | -0.665
89 | AUUGUUGUGGGGUAGGGAUAUUAGGCCCCAAUUAGAAGAUAACUAU [hsa-mir-98] | 0.971
90 | AUUUAUGUGAACUAAAAUAUAAAU [hsa-mir-513b] | -0.599
91 | AUUUCCCAAAGUUGGGAAAA [hsa-mir-320b-2] | -1.08
92 | AUUUCUGUAGCUCUGAGACUAGACCU [hsa-mir-544b] | 0.409
93 | AUUUCUGUGUUCGUUAGGCAACAG [hsa-mir-221] | 0.324
